Substrate: O=C1O[C@H]([C@@H](O)CO)C(O)=C1O
Test: initial rates of oxidized product formation by HPAEC-PAD, Michaelis-Menten fit
Format: biochemical, Aspergillus fumigatus
Settings: reductant (apparent half-saturating concentration), 1 μM LPMO, 1 mM H2O2, 2 mM (GlcNAc)4, aerobic, 50 mM bis-tris/HCl pH 6.5, 37 °C
From the text: initial rates of oxidized product formation by HPAEC-PAD, Michaelis-Menten fit on AfAA11B

B1: AfAA11B (Aspergillus fumigatus Af293) (protein)
chain: HMKMRQPTPYSDSSLNNSPLAADGSDFPCKLRDNAFVPPSQETIAQIGEVMPLTFTGSATHGGGSCQVSLTTDLKPSKDSKWMVIKSIEGGCPANVDGNMSGGADVPDPFEFNYTIPAGIEPGKYTLAWTWFNRIGNREMYMNCAPITVTAGSSKRDAAPVAEKVEVEKRSANFPAMFVANINGCTTKEGVDIRFPDPGDVVEYDGNPSNLQPAGEAACSGTPAWTVSGGSGSPSTPSTSSSTPAGTSAGVSVSVGATVGATPTAEPESSSSEPAESEGAPGVFAPTSATVFPSTPTASAAPTSSSSGAGSESDSSSSSNGALTGPCSTEGLWNCIDGSSFQRCANGQWTTAQQMAAGTECTVGQNAQFTISATAVKPRMINAMRHRKRAHGGHRHA
notes: gene 1257 bp; expressed in Pichia pastoris (PichiaPink Strain 4), no tag mentioned; copper-saturated
**Q.** Which Km does the source give for B1 here?
**A.** The Km was 502 ± 35 µM.

**Q.** And the kcat?
**A.** Its kcat is 3.9 ± 0.2 s^–1.
